The source of these data is publication PMC10980815, “Cell surface patching via CXCR4-targeted nanothreads for cancer metastasis inhibition” (Nature Communications, 2024).

A short description of one data set: ζ-potential (Zetasizer). Conditions: Malvern Zetasizer Nano ZS90; mean ± SD. In kind it is physicochemical. How it is done: (§1) The average molecular weight (Mw) and polydispersity (PDI) of the HPMA copolymer conjugates were determined by gel permeation chromatography (GPC) on an AKTA purifier equipment with a Superose 6 10/300 GL analytical column (GE Healthcare, USA) and a differential refraction detector (KNAUER, 2300, Germany). Hydrodynamic sizes and zeta potentials were determined using a Malvern Zetasizer Nano ZS90 equipment (Malvern Instruments Ltd, Malvern, UK). The contents of BS, CM1, and CM2 were determined using a bicinchoninic acid (BCA) protein assay. The PS concentration was determined by ultraviolet-visible (UV-Vis) spectroscopy at its characteristic absorbance peak (660 nm).

The nature of data set [1]: Hydrodynamic size / size distribution by dynamic light scattering. In kind it is physicochemical. The following applies: Malvern Zetasizer Nano ZS90, mean ± SD. The method, then:
as §1
To investigate the coiled-coil assembly, varying CM1-to-CM2 ratios (3:1, 1:1, and 1:3) of P-BS-CM1 and P-CM2 were mixed in 10 mM PBS (pH 7.4) at 25 °C for 10 min. The total polymer concentration was kept constant at 10 mg/mL. Circular dichroism spectra, size distribution, and rheological properties of P-BS-CM1, P-CM2, and their mixture were measured. The surface morphology of P-BS-CM1 and the mixture (P-BS-CM1 + P-CM2) was observed using scanning electron microscopy. Additionally, for the FRET assay, CM1-to-CM2 equimolar of P-BS-CM1-Cy5 and P-CM2-Cy3 were mixed in 10 mM PBS (pH 7.4) at 25 °C for 10 min. Fluorescent spectra of P-BS-CM1-Cy5, P-CM2-Cy3, and the mixture (P-BS-CM1-Cy5+P-CM2-Cy3) were recorded at the Cy3 excitation wavelength of 550 nm.

Data set [2] can be described thus: Pharmacokinetics upon consecutive, simultaneous and post-assembly delivery. Conditions: for T1/2z: blood fluorescence, mean ± SD, n = 5; for AUC0-t / AUC0-∞ / MRT0-t / MRT0-∞: same. In kind it is in vivo, female BALB/c mice. How it is done: (§2) Three distinct delivery approaches were implemented in 4T1 tumor-bearing female BALB/c mice (6–8-week, tumor volume~200 mm^3, n = 5 per group). i) Consecutive delivery: Nanothread-1 and nanothread-2 were sequentially administered via intravenously injection with a 24 h time interval. ii) Simultaneous delivery: Nanothread-1 and Nanothread-2 were concurrently administered through two tail veins of one mouse. iii) Post-assembly delivery: Nanothread-1 and Nanothread-2 were pre-mixed before intravenous injection (5 nmol of Cy5 and 5 nmol of Cy3 per mouse). For the tumor accumulation study, whole-body living imaging was conducted at 24, 48, and 72 h post-administration of Cy5-labeled Nanothread. Additionally, excised tumors were imaged at the end point using the IVIS optical imaging system. For the pharmacokinetics study, blood samples were extracted at predetermined time points post-administration of fluorescence-labeled Nanothread, n = 5 per group. The fluorescent intensity in blood samples was measured with a microplate reader at the wavelengths of Cy5 (Ex: 630 nm, Em: 670 nm) and Cy3 (Ex: 530 nm, Em: 570 nm). Pharmacokinetic parameters, including half-life (T1/2z), area under curve (AUC), and mean residence time (MRT), were calculated using DAS 2.0 software.

Data set [3] concerns orthotopic 4T1 breast tumors. In words: Tumor accumulation of Cy5-labeled nanothreads (IVIS imaging, excised tumors). In kind it is in vivo, female BALB/c mice. How it is done:
For in vitro studies, 4T1 cells (2 × 10^5 cells) were seeded on coverslips (NEST Biotechnology) for attachment. Subsequently, the cells were treated with i) Cy5-labeled P-CM1 (P-CM1-Cy5) for 1 h, followed by incubation in cell culture medium for an additional 1 h, ii) Cy5-labeled P-BS-CM1 (P-BS-CM1-Cy5) for 1 h, followed by incubation in cell culture medium for an additional 1 h, or iii) P-BS-CM1-Cy5 for 1 h, followed by Cy3-labeled P-CM2 (P-CM2-Cy3) for an additional 1 h (5 nM Cy5 and 5 nM Cy3 equivalence), respectively. Following the treatments, cells were washed three times with PBS, stained with DAPI, and observed using a confocal microscope. For in vivo studies, 4T1 cells (1 × 10^6) were injected into the third mammary fat pad of female BALB/c mice (6–8 weeks, 20 ± 2 g) (n = 3) on day 0 to establish orthotopic breast tumor models. For investigation of CXCR4 binding, mice on day 14 (tumor volume, ~200 mm^3) were intravenously injected with P-CM1-Cy5 or P-BS-CM1-Cy5 (equivalent Cy5 dose, 5 nmol/mouse, n = 3). Whole-body living imaging at 24, 48, and 72 h post-administration as well as excised tumors at the end point, were captured using the IVIS optical imaging system (IVIS Lumina Series III, PerkinElmer, USA). For the analysis of CM1/CM2 biorecognition in the second step, 4T1 tumor-bearing mice (tumor volume, ~200 mm^3) were intravenously injected with Cy5 labeled P-CM2 (P-CM2-Cy5) alone on day 15, or pre-injected P-BS-CM1 on day 14 followed by intravenous injection of P-CM2-Cy5 on day 15 (equivalent Cy5 dose, 5 nmol/mouse, n = 3). Whole-body living imaging at 24 and 48 h post-P-CM2-Cy5 administration, as well as excised tumors at the end point, were captured using the IVIS optical imaging system. For further investigation, mice (tumor volume, ~200 mm^3) were intravenously injected with P-BS-CM1-Cy5 on day 14 and then P-CM2-Cy3 on day 15 (5 nmol of Cy5 and 5 nmol of Cy3 per mouse). One day later, tumor tissues were collected for frozen sectioning and further observation by confocal microscope.
as §2

Ends that are not written are not given here. HPMA copolymer = HPMA copolymer made by RAFT copolymerization of HPMA with N-(3-aminopropyl)methacrylamide (APMA), bearing maleimide groups for grafting

Turning to “P-CM2: HPMA copolymer-CM2 conjugate, ~12 CM2 grafts per polymer (C(HPMA copolymer)YGGEVSALEKEVSALEKKNSALEKEVSALEKEVSALEK; also: CM2 N-terminal cysteine joined to a maleimide of the HPMA copolymer backbone, ~12 per polymer)”, in “ζ-potential (Zetasizer)”, the ζ-potential is on record as -8.73±0.34 mV. The same molecule displayed a Size in data set [1] of 19.2±0.7 nm.
Taken in the same sequence, the figures for “P-PS-CM2: HPMA backbone grafted with CM2 and chlorin e6 photosensitizer (C(HPMA copolymer)YGGEVSALEKEVSALEKKNSALEKEVSALEKEVSALEK; also: chlorin e6 photosensitizer on polymer)” were -11.21±1.24 mV and 25.8±1.2 nm.
In “ζ-potential (Zetasizer)”, “P-CM2-Cy5: Cy5 labeled P-CM2 (C(HPMA copolymer)YGGEVSALEKEVSALEKKNSALEKEVSALEKEVSALEK; also: Cy5 label on conjugate, position not given here)” registered a ζ-potential of -8.94±0.45 mV. The T1/2z was determined as 20.232 ± 6.5 h in data set [2] (Consecutive delivery (24 h interval) with unlabeled partner nanothread, i.v., 4T1 tumor-bearing mice, 5 nmol Cy5/mouse, DAS 2.0); 14.142 ± 3.54 h in data set [2] (Post-assembly delivery (pre-mixed with unlabeled partner nanothread before i.v. injection)); 17.583 ± 4.307 h in data set [2] (Simultaneous delivery (two tail veins, 0 h) with unlabeled partner nanothread, i.v.). In addition, the values for the AUC0-t in data set [2] (Consecutive delivery), in data set [2] (Post-assembly delivery) and in data set [2] (Simultaneous delivery) were 2807.529 ± 561.373 ng·h/mL, 1356.51 ± 241.624 ng·h/mL and 1339.808 ± 201.879 ng·h/mL, respectively. Besides, the “AUC0-∞” value came out at 2999.46 ± 668.451 ng·h/mL in data set [2] (Consecutive delivery), 1374.981 ± 237.509 ng·h/mL in data set [2] (Post-assembly delivery) and 1385.53 ± 238.655 ng·h/mL in data set [2] (Simultaneous delivery). Further, the figures for the MRT0-t in data set [2] (Consecutive delivery), in data set [2] (Post-assembly delivery) and in data set [2] (Simultaneous delivery) were 15.196 ± 1.358 h, 8.789 ± 0.154 h and 9.919 ± 0.611 h, respectively. The “MRT0-∞” value was found to be 21.117 ± 3.236 h in data set [2] (Consecutive delivery), 10.384 ± 0.829 h in data set [2] (Post-assembly delivery) and 12.694 ± 2.736 h in data set [2] (Simultaneous delivery). This molecule also returned a Size in data set [1] of 19.8±0.7 nm. For the same molecule, the “tumor accumulation of Nanothread-2 (Fig. 5b, excised tumors)” value worked out at 1.72 in data set [3] (P-CM2-Cy5 i.v. 5 nmol Cy5/mouse 24 h after saline or P-BS-CM1, IVIS at end point (48 h), animal 1 of 3); 0.962 in data set [3] (P-CM2-Cy5 i.v. 5 nmol Cy5/mouse 24 h after saline or P-BS-CM1, IVIS at end point (48 h), animal 1 of 3, listed as G3); 1.74 in data set [3] (same, animal 2 of 3); 0.787 in data set [3] (same, animal 2 of 3, listed as G3); 1.49 in data set [3] (same, animal 3 of 3); 0.495 in data set [3] (same, animal 3 of 3, listed as G3).

B1: P-BS-CM1: linear HPMA polymer backbone grafted with CXCR4 binding sequence (BS) and coiled motif CM1 (conjugate)
chain 1: LGASWHRPDKCCLGYQKRPLPA
chain 2: C(HPMA copolymer)YGGKVSALKEKVSALKEEVSANKEKVSALKEKVSALKE
modifications: not fully specified (some residues); also: BS cysteines (Cys11, Cys12) joined to maleimides of the HPMA copolymer backbone, ~6 per polymer, CM1 N-terminal cysteine joined to a maleimide of the HPMA copolymer backbone, ~4 per polymer
In “ζ-potential (Zetasizer)”, B1 gave a ζ-potential of -5.67±0.79 mV. This molecule also returned a Size in data set [1] of 17.5±2.1 nm.
